Values of other authors as cited in paper PMC5603210.

Molecular target: von Willebrand factor (Homo sapiens) (UniProt P04275)

Kd: 0.5 nM
Substance: Factor VIII (from UniProt P00451)
